The source of these data is PMC3410904.

Assay [1] has as its target CSL (residues 10-436 of human isoform 1, myc/his) (human) (UniProt Q06330).
The target is the same in assay [2]. The source holds these as a separate data set.
Assay [3] deals with CSL^F235L (residues 10-436 of human isoform 1, myc/his) (human) (UniProt Q06330).
Assay [4] deals with CAN (CSL-ANKNLS) fusion protein (human) (UniProt Q06330).
Assay [5] has as its target CSL (residues 10-436 of human isoform 1, myc/his) (human) (UniProt Q06330). This is another data set of the same source.
Another assay addresses CSL BTD (Homo sapiens) (UniProt Q06330). The following applies: cited from earlier work.
In assay [6] the target is CAN (CSL-ANKNLS) fusion protein (human) (UniProt Q06330). The source holds these as a separate data set.

In general, Kd refers to the concentration at which binding is half-saturated.

Regarding “… (human Notch1 residues 1758-2174) (from UniProt P46531 1758-2174) (domain or fragment)”, the TP1-luc luciferase reporter in OT11 cells; … co-transfected with CSL; fold over empty vector in assay [1] came to 24 fold.

In turn, “NICD* (full-length NICD with xWxP to A4) (domain or fragment)” registered a TP1-luc luciferase reporter in OT11 cells; NICD* co-transfected with CSL; fold activation in assay [2] of 4 fold. In assay [3], this substance registered a TP1-luc luciferase reporter in OT11 cells; NICD* co-transfected with CSL^F235L; fold activation of 38 fold.

The substance “dominant-negative form of MAML (dnMAML) (domain or fragment)” came in with a TP1-luc luciferase reporter in OT11 cells; CAN co-transfected with RAM and 1 to 30 ng dnMAML plasmid; percent of maximal (uninhibited) activation, nearly 0% at 30 ng (% of maximal activation) in assay [4] of 25. The same substance gave a TP1-luc luciferase reporter in OT11 cells; CSL co-transfected with … and 1 to 30 ng dnMAML plasmid; percent of maximal (uninhibited) activation, nearly 0% at 30 ng (% of maximal activation) in assay [5] of 30.

In assay [2], “full-length NICD (human Notch1 intracellular domain) (domain or fragment)” gave a TP1-luc luciferase reporter in OT11 cells; NICD co-transfected with CSL; fold activation of 100 fold. In assay [3], this substance gave a TP1-luc luciferase reporter in OT11 cells; NICD co-transfected with CSL^F235L; fold activation of 94 fold.

For “Notch intracellular domain RAM region RAM (from UniProt P46531)”, the Kd with CSL BTD (Homo sapiens) is 100 nM.

The substance “RAM (human Notch1 residues 1758-1878) (from UniProt P46531 1758-1878) (domain or fragment)” had a TP1-luc luciferase reporter in OT11 cells; RAM and ANKNLS in trans co-transfected with CSL; fold activation in assay [1] of 9 fold. For the same substance, in assay [6], the TP1-luc luciferase reporter in OT11 cells; RAM co-transfected with CAN; fold over CAN alone was determined as 6 fold.
